The target of the test is T1, synthetic Aβ1-42 peptide (aggregated in the ELISAs) (human, UniProt P05067 672-713).
T1 construct: range 672-713; It was coated as aggregated peptide in the ELISAs; also called aggregated Aβ1-42; Aβ (1-42) aggregate
In words: competitive Aβ 1-42 ELISA; competitor biotinylated m12A11Cγ2a at a fixed concentration. A general note: In an ELISA, binding on a coated surface is turned into a signal by an enzyme label.

Results on one molecule are retold here after patent publication US20050118651A1 (NEURALAB, published 2005).

B1: humanized 12A11 version 1 (antibody, V domains shown)
VH: QVQLVESGGGVVQPGRSLRLSCAFSGFSLSTSGMSVGWIRQAPGKGLEWLAHIWWDDDKYYNPSLKSRLTISKDTSKNTVYLQMNSLRAEDTAVYYCARRTTTADYFAYWGQGTTVTVSS
VL: DVVMTQSPLSLPVTPGEPASISCRSSQSIVHSNGNTYLEWYLQKPGQSPQLLIYKVSNRFSGVPDRFSGSGSGTDFTLKISRVEAEDVGVYYCFQSSHVPLTFGQGTKLEIK
notes: Made by transient expression in COS cells; also called h12A11v1; 12A11v1
As for B1, the “fold of IC50 against murine and chimeric 12A11” value is ≤ 2 fold (x IC50).
